Measurements as given in the supplement of paper PMC7877785.
± gives the uncertainty stated by the source.

Assay: self-splicing fitness, log relative to wild type (ln ratio); higher = more splicing; Tetrahymena group I intron in knt gene, E. coli kanamycin selection, DiMSum; sequences stand for … in CUCUCU…GGAGGGAAAAGUUAUCAGGCAUGCACCUGGUAGCUAGUCUUUAAACCAAUAGAUUGCAUCGGUUUAAAAGGCAAGACCGUCAAAUUGCGGGAAAGGGGUCAACAGCCGUUCAGUACCAAGUCUCAGGGGAAACUUUGAGAUGGCCUUGCAAAGGGUAUGGUAAUAAGCUGACGGACAUGGUCCUAACCACGCAGCCAAGUCCUAAGUCAACAGAUCUUCUGUUGAUAUGGAUGCAGUUCACAGACUAAAUGUCGGUCGGGGAAGAUGUAUUCUUCUCAUAAGAUAUAGUCGGACCUCUCCUUAAUGGGAGCUAGCGGAUGAAGUGAUGCAACACUGGAGCCGCUGGGAACUAAUUUGUAUGCGAAAGUAUAUUGAUUAGUUUUGGAGUACUCGUGGUCG
In short: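 The eight P1ex-region nucleotides of an intron in the knt kanamycin-resistance gene on pET-22b(+) were all randomised and the library put into E. coli BL21(DE3). Six replicate transformations were grown overnight at 37°C or 30°C on LB agar with or without 25 μg/mL kanamycin, together with 100 μg/mL carbenicillin, 50 μM IPTG and 0.2% rhamnose. Colonies were pooled and amplicon-sequenced on an Illumina HiSeq 2500. Fitness from DiMSum is the error-weighted combination of wild-type-normalised replicate fold changes, kanamycin over none.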

Sequence	self-splicing fitness (ln) (30 °C)	self-splicing fitness (ln) (37 °C)
GCUAAGCAAUAUUACGAACA	-1.65 ± 0.2	-0.907 ± 0.27
UCAAAGCAAUAUUACGUAUG	-2.44 ± 0.12	-2.05 ± 0.15
UGCUAGCAAUAUUACGUCCG	-0.00657 ± 0.11	0.18 ± 0.14
UGCCAGCAAUAUUACGCAAU	-4.51 ± 0.2	-2.59 ± 0.13
GGCUAGCAAUAUUACGUUGU	-1.59 ± 0.083	-0.434 ± 0.11
AUGAAGCAAUAUUACGCCAA	-0.427 ± 0.086	0.0636 ± 0.11
AUAGAGCAAUAUUACGUGCG	-1.6 ± 0.11	-0.384 ± 0.11
UAUAAGCAAUAUUACGCGCA	-0.204 ± 0.11	0.304 ± 0.14
AUCGAGCAAUAUUACGCGCU	-2.97 ± 0.26	-2.87 ± 0.36
AUGUAGCAAUAUUACGACUC	0.285 ± 0.12	0.585 ± 0.18
ACUUAGCAAUAUUACGAAAU	-3.03 ± 0.23	-1.23 ± 0.2
CACGAGCAAUAUUACGGGAU	-3.52 ± 0.28	-2.33 ± 0.21
UUUGAGCAAUAUUACGCCAA	–	-1.56 ± 0.27
CUUCAGCAAUAUUACGGGUA	-3.12 ± 0.22	-3.74 ± 0.28
CCAGAGCAAUAUUACGAAUG	-1.73 ± 0.097	-0.868 ± 0.12
CUUCAGCAAUAUUACGUAGG	-1.49 ± 0.1	-0.863 ± 0.12
GCUAAGCAAUAUUACGGACA	-1.35 ± 0.12	-1.17 ± 0.12
CGCGAGCAAUAUUACGACUA	-2.42 ± 0.23	-2.64 ± 0.25
CCCGAGCAAUAUUACGUCUC	–	-2.22 ± 0.29
CAGUAGCAAUAUUACGAUGC	-3.51 ± 0.28	-2.67 ± 0.3
ACUAAGCAAUAUUACGGUGG	-3.1 ± 0.11	-2.84 ± 0.16
AGAUAGCAAUAUUACGCCCA	-1.03 ± 0.21	-0.502 ± 0.23
GCUCAGCAAUAUUACGCGUU	-0.447 ± 0.066	0.599 ± 0.084
GAACAGCAAUAUUACGAUAC	-0.825 ± 0.065	-0.127 ± 0.087
UGGAAGCAAUAUUACGAAGU	-3.57 ± 0.35	–

Sequence	self-splicing fitness (ln) (30 °C)	self-splicing fitness (ln) (37 °C)
CGUCAGCAAUAUUACGCCUU	–	-1.94 ± 0.2
CGGGAGCAAUAUUACGCCUA	-2.84 ± 0.27	-2.14 ± 0.19
AGGGAGCAAUAUUACGCUUA	-3.44 ± 0.24	-1.62 ± 0.21
AGCAAGCAAUAUUACGAGUG	-1.15 ± 0.051	-0.683 ± 0.06
GGUGAGCAAUAUUACGUGGU	-3.51 ± 0.47	-2.36 ± 0.24
GGGAAGCAAUAUUACGAUAC	-0.528 ± 0.14	-0.986 ± 0.16
GCUCAGCAAUAUUACGUUGU	-0.847 ± 0.042	-0.0979 ± 0.057
GUCCAGCAAUAUUACGGAUC	-4.49 ± 0.28	-3.62 ± 0.27
CAGAAGCAAUAUUACGCUUA	-3.85 ± 0.32	-1.9 ± 0.18
CCAAAGCAAUAUUACGGCUG	-0.987 ± 0.069	-0.917 ± 0.088
UAUGAGCAAUAUUACGAAGU	-4.08 ± 0.42	-1.93 ± 0.23
AAAAAGCAAUAUUACGGGGG	-3.27 ± 0.17	-2.76 ± 0.18
ACCAAGCAAUAUUACGAGCU	-1.62 ± 0.056	-0.791 ± 0.072
CCAUAGCAAUAUUACGCCAU	-4.18 ± 0.31	-2.41 ± 0.25
CGUUAGCAAUAUUACGAUGC	-0.888 ± 0.21	-1.63 ± 0.31
CCCUAGCAAUAUUACGUUGG	-3.97 ± 0.23	-2.48 ± 0.2
AGGCAGCAAUAUUACGACAC	-1.75 ± 0.18	-0.221 ± 0.18
UGGUAGCAAUAUUACGAUGU	-3.19 ± 0.19	-2.12 ± 0.26
GCUAAGCAAUAUUACGCAGU	-3.5 ± 0.24	-2.88 ± 0.31
GAUAAGCAAUAUUACGCUGG	-2.66 ± 0.14	-2.04 ± 0.2
UAAUAGCAAUAUUACGUGAU	-4.15 ± 0.37	-1.61 ± 0.21
UUGGAGCAAUAUUACGGGAU	–	-2.77 ± 0.4
CUCGAGCAAUAUUACGAUAG	-1.11 ± 0.15	-0.333 ± 0.15
UCACAGCAAUAUUACGCGCU	-3.85 ± 0.21	-1.78 ± 0.16
CUCUAGCAAUAUUACGGUCG	-1.51 ± 0.14	-0.933 ± 0.14

Sequence	self-splicing fitness (ln) (30 °C)	self-splicing fitness (ln) (37 °C)
GGCCAGCAAUAUUACGGUGG	-2.52 ± 0.14	-1.85 ± 0.14
ACUGAGCAAUAUUACGAACU	-1.92 ± 0.13	-1.24 ± 0.16
UAGUAGCAAUAUUACGUGAG	-1.3 ± 0.074	-1.87 ± 0.12
CUAAAGCAAUAUUACGGUAC	–	-2.35 ± 0.25
GGAAAGCAAUAUUACGUUCG	-0.612 ± 0.097	-0.624 ± 0.14
CUGAAGCAAUAUUACGUUAC	-3.27 ± 0.35	-2.39 ± 0.44
CUUUAGCAAUAUUACGUUGC	-3.08 ± 0.28	-3.55 ± 0.39
GGUCAGCAAUAUUACGGGUU	-1.25 ± 0.083	-0.194 ± 0.089
ACACAGCAAUAUUACGCAUU	-2.47 ± 0.081	-1.5 ± 0.087
AAAGAGCAAUAUUACGAAUG	-2.69 ± 0.2	–
UGUCAGCAAUAUUACGUUGG	-4.09 ± 0.3	-2.22 ± 0.25
ACAGAGCAAUAUUACGUCGU	-3.11 ± 0.16	-0.947 ± 0.15
UGCGAGCAAUAUUACGUGCU	–	-1.79 ± 0.32
UCCAAGCAAUAUUACGAGUG	-2.75 ± 0.13	-2.03 ± 0.11
UGUGAGCAAUAUUACGUGCU	-3.34 ± 0.29	-3.41 ± 0.33
UUUUAGCAAUAUUACGCACU	-0.447 ± 0.12	-0.218 ± 0.15
AAGGAGCAAUAUUACGAGGC	-2.89 ± 0.17	-2.41 ± 0.44
CGAAAGCAAUAUUACGCAUU	-4.46 ± 0.42	-2.94 ± 0.37
ACCGAGCAAUAUUACGCAGC	-4.02 ± 0.47	-2.84 ± 0.48
AUAAAGCAAUAUUACGAAUG	-1.48 ± 0.1	-0.422 ± 0.12
ACUUAGCAAUAUUACGUUCC	-2.16 ± 0.31	-2.04 ± 0.44
CACUAGCAAUAUUACGCAAG	-2.39 ± 0.098	-1.43 ± 0.12
CCCAAGCAAUAUUACGUAGG	-2.17 ± 0.067	-1.56 ± 0.082
GUCCAGCAAUAUUACGAGUC	-1.23 ± 0.097	-0.164 ± 0.098
CGCGAGCAAUAUUACGUGUG	-4.51 ± 0.24	-2.68 ± 0.13

Sequence	self-splicing fitness (ln) (30 °C)	self-splicing fitness (ln) (37 °C)
AGGAAGCAAUAUUACGGAUA	–	-2.01 ± 0.21
UGCGAGCAAUAUUACGUAAG	-3.72 ± 0.26	-2.34 ± 0.28
ACCUAGCAAUAUUACGAUCA	-1.23 ± 0.17	-1.19 ± 0.18
GCGUAGCAAUAUUACGGAAU	-2.67 ± 0.33	-0.8 ± 0.2
CCGCAGCAAUAUUACGUAGU	-3.89 ± 0.14	-2.88 ± 0.18
CAUCAGCAAUAUUACGUGCC	-2.97 ± 0.16	-2.47 ± 0.24
UGUCAGCAAUAUUACGCUCU	-0.884 ± 0.15	-0.226 ± 0.13
AUCAAGCAAUAUUACGUGCG	-1.03 ± 0.079	0.202 ± 0.099
CGUGAGCAAUAUUACGUUCU	-2.74 ± 0.28	-2.2 ± 0.27
AGUGAGCAAUAUUACGAAUU	-3.18 ± 0.37	-2.56 ± 0.33
UACGAGCAAUAUUACGCCCA	-2.24 ± 0.27	-1.02 ± 0.29
AGCGAGCAAUAUUACGUGAG	-4.49 ± 0.27	-2.79 ± 0.19
CUCGAGCAAUAUUACGUCGU	-1.77 ± 0.26	-1.88 ± 0.37
CUCCAGCAAUAUUACGUCAA	-3.08 ± 0.19	-3.24 ± 0.23
GUAAAGCAAUAUUACGGGAA	-2.36 ± 0.11	-0.287 ± 0.12
GCAGAGCAAUAUUACGGGCU	-1.78 ± 0.3	-2.03 ± 0.39
GCACAGCAAUAUUACGUCAU	-1.89 ± 0.071	-0.731 ± 0.082
UUAGAGCAAUAUUACGACUU	-1.32 ± 0.13	-1.77 ± 0.19
GAAGAGCAAUAUUACGGUUC	-3.53 ± 0.29	-1.46 ± 0.22
AGAGAGCAAUAUUACGAUGG	-4.56 ± 0.36	-1.17 ± 0.29
UGCUAGCAAUAUUACGUGCC	–	-0.724 ± 0.3
CUGUAGCAAUAUUACGAUGU	-5.35 ± 0.11	-5.09 ± 0.16
AACAAGCAAUAUUACGCUGA	-1.34 ± 0.087	-1.01 ± 0.11
